Experimental data reported in US5607849.
Where two headings read alike, the source gives them in different places.

Legend:
dimethylated casein [1] = target: dimethylated casein
dimethylated casein [2] = target: dimethylated casein; remark: listed apart in the source
dimethylated casein [3] = target: dimethylated casein; remark: listed apart in the source

Substance: Alaska pollack (Theragra chalcogramma) liver-derived transglutaminase, natural enzyme purified from liver (S-Sepharose fraction)
- relative activity (fluorescence intensity due to bonding of monodansylcadaverine with dimethylated casein) (units/mg protein) (dimethylated casein [1]): 591

Substance: Pagrus major liver-derived transglutaminase, natural enzyme purified from liver (heparin fraction)
- relative activity (fluorescence intensity due to bonding of monodansylcadaverine with dimethylated casein) (units/mg protein) (dimethylated casein [2]): 807

Substance: Pagrus major transglutaminase, recombinant (expressed from the cDNA of pSLTG5 by plasmids pIL6TG1 and pTTG2-22 in E. coli HB101 and pYSTG1 in Saccharomyces cerevisiae INVSC2) (enzyme)
- Relative fluorescence intensity (bonding of monodansyl cadaverine with dimethylated casein) (relative fluorescence intensity) (dimethylated casein [3]): 910
